These results are taken from PMC5501724, “Structural Basis for Specific Interaction of TGFβ Signaling Regulators SARA/Endofin with HD-PTP” (Structure(London, England:1993), 2017).

Common to all, as to assay: SPR equilibrium, peptide analyte
For assay [1], the target named is T1, CHMP4C (Homo sapiens (Human), UniProt Q96CF2).
T1 chain: QRAEEEDDDIKQLAAWAT

The target of assay [2] is T2, CHMP4A (Homo sapiens (Human), UniProt Q9BY43).
T2 chain: PKVDEDEEALKQLAEWVS

For assay [3], the target named is T3, CHMP4B (Homo sapiens (Human), UniProt Q9H444).
T3 chain: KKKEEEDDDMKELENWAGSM

B1: HDPTP_Bro1 (protein)
chain: MEAVPRMPMIWLDLKEAGDFHFQPAVKKFVLKNYGENPEAYNEELKKLELLRQNAVRVPRDFEGCSVLRKYLGQLHYLQSRVPMGSGQEAAVPVTWTEIFSGKSVAHEDIKYEQACILYNLGALHSMLGAMDKRVSEEGMKVSCTHFQCAAGAFAYLREHFPQAYSVDMSRQILTLNVNLMLGQAQECLLEKSMLDNRKSFLVARISAQVVDYYKEACRALENPDTASLLGRIQKDWKKLVQMKIYYFAAVAHLHMGKQAEEQQKFGERVAYFQSALDKLNEAIKLAKGQPDTVQDALRFTMDVIGGKYNSAKKDNDFIYHEAVPALDTLQPVKGAPLVKPLPVNPTDPAVTGPDIFAKLV
For orientation: Kd means the concentration at which binding is half-saturated. Read a high Kd as lower affinity. In the case of B1, the Kd was 88 µM in assay [1], 132 µM in assay [2] and 85 µM in assay [3].
